Experimental data reported in PMC11144216.

Biological target: diffusible Aβ aggregates from postmortem frontal cortex of AD patients (human (endogenous in postmortem frontal cortex))
Test: single-molecule pull-down (SiMPull); soaked-brain extracts (neat) of frontal cortex of APOE4/4 and APOE3/3 AD patients; captured by biotinylated 6E10; detected with Alexa-Fluor-647 6E10 and Alexa-Fluor-488 EPR19392; two-colour TIRF, colocalisation

Substance	percent of Aβ aggregates that are co-aggregates (colocalisation by number) [%]
apoE3 in frontal-cortex extracts of homozygous APOE3 AD patients (from UniProt P02649 19-317) (natural protein)	1
apoE4 in frontal-cortex extracts of homozygous APOE4 AD patients (from UniProt P02649 19-317) (natural protein)	5
